Assay results from PMC5469197, “ANGUSTIFOLIA, a Plant Homolog of CtBP/BARS Localizes to Stress Granules and Regulates Their Formation” (Frontiers in Plant Science, 2017).

Assays:
Assay in all cases: co-IP; LUMIER in HEK293TN cells: Prot-A fusion co-transfected with Renilla luciferase fusion (AN always the luciferase fusion with the interactors); luciferase activity before (input) and after pulldown; percentage pulldown = pulldown/input x 100; empty vectors as negative control; positive if more than two times the background
Details in all cases: partners not purified
[1] = molecular target: T1, TANDEM ZINC FINGER 3 (TZF3), Prot-A fusion (Arabidopsis thaliana, UniProt Q9M0G2 1-356)
T1 construct: Tandem zinc finger 3, Arabidopsis thaliana, AT4G29190; CDS amplified from Col-0 cDNA; source: HEK293TN cells, transfected; not shown: Protein A (Staphylococcus aureus), N-terminal, kept
T1 sequence (looked up): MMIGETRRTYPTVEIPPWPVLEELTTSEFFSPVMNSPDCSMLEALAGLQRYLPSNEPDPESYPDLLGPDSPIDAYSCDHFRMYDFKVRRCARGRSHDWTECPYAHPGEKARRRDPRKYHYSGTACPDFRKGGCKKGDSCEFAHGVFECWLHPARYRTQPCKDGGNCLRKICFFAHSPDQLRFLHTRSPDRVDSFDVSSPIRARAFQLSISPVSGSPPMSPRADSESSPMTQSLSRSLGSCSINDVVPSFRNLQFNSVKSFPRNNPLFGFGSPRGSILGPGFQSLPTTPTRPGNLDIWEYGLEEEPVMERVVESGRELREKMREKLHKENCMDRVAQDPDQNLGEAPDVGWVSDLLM

[2] = molecular target: T2, RNA BINDING PROTEIN 47C (RBP47C), Prot-A fusion (Arabidopsis thaliana, UniProt Q9SX79 1-432)
T2 construct: RBP47C, Arabidopsis thaliana, AT1G47490; CDS amplified from Col-0 cDNA; source: HEK293TN cells, transfected; not shown: Protein A (Staphylococcus aureus), N-terminal, kept
T2 sequence (looked up): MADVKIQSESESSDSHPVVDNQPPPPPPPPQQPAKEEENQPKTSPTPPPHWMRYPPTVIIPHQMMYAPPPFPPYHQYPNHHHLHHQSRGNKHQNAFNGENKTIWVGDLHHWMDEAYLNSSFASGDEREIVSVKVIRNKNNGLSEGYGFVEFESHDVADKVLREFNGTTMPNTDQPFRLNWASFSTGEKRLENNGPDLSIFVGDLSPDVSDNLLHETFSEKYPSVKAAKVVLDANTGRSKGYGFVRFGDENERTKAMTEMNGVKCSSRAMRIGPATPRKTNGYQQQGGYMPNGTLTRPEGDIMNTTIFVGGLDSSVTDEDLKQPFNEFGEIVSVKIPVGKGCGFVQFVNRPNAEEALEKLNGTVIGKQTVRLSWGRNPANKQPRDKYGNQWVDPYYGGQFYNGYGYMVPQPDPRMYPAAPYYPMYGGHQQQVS

[3] = molecular target: T3, EIF (ISO) 4E, Prot-A fusion (Arabidopsis thaliana, UniProt O04663 1-198)
T3 construct: EIF(iso)4E, Arabidopsis thaliana, AT5G35620; CDS amplified from Col-0 cDNA; source: HEK293TN cells, transfected; not shown: Protein A (Staphylococcus aureus), N-terminal, kept
T3 sequence (looked up): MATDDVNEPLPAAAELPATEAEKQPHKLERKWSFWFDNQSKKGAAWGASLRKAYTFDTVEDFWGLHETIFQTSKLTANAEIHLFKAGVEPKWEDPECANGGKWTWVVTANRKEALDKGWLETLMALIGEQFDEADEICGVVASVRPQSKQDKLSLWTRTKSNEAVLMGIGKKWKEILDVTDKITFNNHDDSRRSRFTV

[4] = molecular target: T4, POLY(A) BINDING PROTEIN 2 (PAB2), Prot-A fusion (Arabidopsis thaliana, UniProt P42731 1-629)
T4 construct: CDS amplified from Col-0 cDNA; also called AtPAB2; source: HEK293TN cells, transfected; not shown: Protein A (Staphylococcus aureus), N-terminal, kept
T4 sequence (looked up): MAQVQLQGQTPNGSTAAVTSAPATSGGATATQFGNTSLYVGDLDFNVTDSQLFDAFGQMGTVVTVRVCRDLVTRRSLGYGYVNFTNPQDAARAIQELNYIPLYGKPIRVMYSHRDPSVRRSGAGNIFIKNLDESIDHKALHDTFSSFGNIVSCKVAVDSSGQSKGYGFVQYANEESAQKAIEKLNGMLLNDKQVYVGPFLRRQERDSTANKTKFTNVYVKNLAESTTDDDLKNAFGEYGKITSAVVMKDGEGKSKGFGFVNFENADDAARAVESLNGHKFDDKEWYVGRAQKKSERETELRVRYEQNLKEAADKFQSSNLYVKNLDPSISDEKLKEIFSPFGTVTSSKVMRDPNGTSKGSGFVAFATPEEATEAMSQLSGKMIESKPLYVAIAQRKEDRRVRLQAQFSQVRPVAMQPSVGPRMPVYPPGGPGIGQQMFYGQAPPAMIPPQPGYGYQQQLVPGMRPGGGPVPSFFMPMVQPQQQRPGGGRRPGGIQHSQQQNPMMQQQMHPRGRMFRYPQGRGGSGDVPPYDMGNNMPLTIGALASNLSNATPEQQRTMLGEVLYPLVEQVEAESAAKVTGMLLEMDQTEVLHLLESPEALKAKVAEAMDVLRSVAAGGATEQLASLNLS

B1: AN, Renilla luciferase fusion (LUMIER) (natural protein, Arabidopsis thaliana, UniProt O23702 1-636, looked up)
chain: MSKIRSSATMPHRDQPSPASPHVVTLNCIEDCALEQDSLAGVAGVEYVPLSRIADGKIESATAVLLHSLAYLPRAAQRRLRPHQLILCLGSADRAVDSTLAADLGLRLVHVDTSRAEEIADTVMALILGLLRRTHLLSRHALSASGWLGSLQPLCRGMRRCRGMVLGIVGRSVSARYLASRSLAFKMSVLYFDVPEGDEERIRPSRFPRAARRMDTLNDLLAASDVISLHCALTNDTVQILNAECLQHIKPGAFLVNTGSCQLLDDCAVKQLLIDGTIAGCALDGAEGPQWMEAWVKEMPNVLILPRSADYSEEVWMEIREKAISILHSFFLDGVIPSNTVSDEEVEESEASEEEEQSPSKHEKLAIVESTSRQQGESTLTSTEIVRREASELKESLSPGQQHVSQNTAVKPEGRRSRSGKKAKKRHSQQKYMQKTDGSSGLNEESTSRRDDIAMSDTEEVLSSSSRCASPEDSRSRKTPLEVMQESSPNQLVMSSKKFIGKSSELLKDGYVVALYAKDLSGLHVSRQRTKNGGWFLDTLSNVSKRDPAAQFIIAYRNKDTVGLRSFAAGGKLLQINRRMEFVFASHSFDVWESWSLEGSLDECRLVNCRNSSAVLDVRVEILAMVGDDGITRWID
notes: ANGUSTIFOLIA (AN), Arabidopsis thaliana, AT1G01510; CDS amplified from Col-0 cDNA; in the dimerisation test the second copy must have been the N-terminal protein A fusion (surmised from the LUMIER format); also called wild-type AN; source: HEK293TN cells, transfected; not shown: Renilla reniformis luciferase, N-terminal, kept
fold change from background [1]: 5.25 fold | percentage pulldown [1]: 0.5% | fold change from background [2]: 4.97 fold | percentage pulldown [2]: 0.46% | fold change from background [3]: 4.09 fold | percentage pulldown [3]: 0.39% | fold change from background [4]: 7.67 fold | percentage pulldown [4]: 0.71%
